Results as given in patent publication US20120237528A1 (Janssen / Centocor, published 2012).
Residue numbers refer to the chain shown, from its start.

T1: Cynomolgous monkey (cyno) TF-ECD with His Tag (cynomolgus monkey, UniProt P13726 33-251 (human entry))
T1 construct: also called cyno antigen
T1 chain: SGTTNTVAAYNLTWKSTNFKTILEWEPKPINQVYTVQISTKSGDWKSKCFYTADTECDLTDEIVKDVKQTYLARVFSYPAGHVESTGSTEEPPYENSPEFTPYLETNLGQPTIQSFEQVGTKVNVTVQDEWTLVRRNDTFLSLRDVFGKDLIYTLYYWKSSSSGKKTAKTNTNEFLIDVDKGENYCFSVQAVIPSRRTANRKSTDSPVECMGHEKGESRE

B1: murine antibody 10H10 (antibody, V domains shown)
VH: QVHLQQSGAELMKPGASVKISCKASGYTFITYWIEWVKQRPGHGLEWIGDILPGSGSTNYNENFKGKATFTADSSSNTAYMQLSSLTSEDSAVYYCARSGYYGNSGFAYWGQGTLVTVSA
VL: DIVMTQSPSSLTVTAGEKVTMSCKSSQSLLSSGNQKNYLTWYQQIPGQPPKLLIYWASTRESGVPDRFTGSGSGTDFTLTINSVQAEDLAVYYCQNDYTYPLTFGAGTKLELK
B2: M10 (antibody, V domains shown)
VH: EVQLVQSGAEVKKPGESLRISCKGSGYTFITYWIEWVRQMPGKGLEWMGDILPGSGSTNYNENFKGHVTISADKSISTAYLQWSSLKASDTAMYYCARSGYYGNSGFAYWGQGTLVTVSS
VL: DIVMTQTPLSLPVTPGEPASISCKSSQSLLSSGNQKNYLTWYLQKPGQSPQLLIYWASTRESGVPDRFSGSGSGTDFTLKISRVEAEDVGVYYCQNDYTYPLTFGQGTKLEIK
notes: complete MAb; FR4 is its own entry; also called H15/L3
B3: M37 (antibody, V domains shown)
VH: QVQLVQSGAEVKKPGSSVKVSCKASGYTFITYWIEWVRQAPGQGLEWMGDILPGSGSTNYNENFKGRVTITADESTSTAYMELSSLRSEDTAVYYCARSGYYGNSGFAYWGQGTLVTVSS
VL: DIVMTQSPDSLAVSLGERATINCKSSQSLLSSGNQKNYLTWYQQKPGQPPKLLIYWASTRESGVPDRFSGSGSGTDFTLTISSLQAEDVAVYYCQNDYTYPLTFGQGTKLEIK
notes: complete MAb; FR4 is its own entry; also called H19/L2
B4: M26 (antibody, V domains shown)
VH: B3 VH with S16A, G44R, A72R, E74T, T76A
VL: B2 VL with P12S, E17Q, S49P
notes: complete MAb; FR4 is its own entry; also called H17/L5
B5: M42 (antibody, V domains shown)
VH: B3 VH
VL: B2 VL with L11S, P15L, E17Q, Y42L, L43Q, K45R, S49P, Q51R, S73A
notes: complete MAb; FR4 is its own entry; also called H19/L7
B6: M46 (antibody, V domains shown)
VH: B3 VH with S16A, I70M, A72T, E74T, S84R, E89D
VL: B2 VL with T7S
notes: complete MAb; FR4 is its own entry; also called H20/L4
B7: M68 (antibody, V domains shown)
VH: B3 VH with N61A, E62Q, N63K, K65Q
VL: B2 VL with P12S, E17Q, S49P
notes: complete MAb; FR4 is its own entry; also called H23/L5
B8: M67 (antibody, V domains shown)
VH: B3 VH with N61A, E62Q, N63K, K65Q
VL: B2 VL with T7S
notes: complete MAb; FR4 is its own entry; also called H23/L4
B9: M21 (antibody, V domains shown)
VH: B3 VH with S16A, I70M, A72R, E74T, A79V
VL: B2 VL with L11S, P15L, E17Q, Y42L, L43Q, K45R, S49P, Q51R, S73A
notes: complete MAb; FR4 is its own entry; also called H16/L7
B10: M28 (antibody, V domains shown)
VH: B3 VH with S16A, G44R, A72R, E74T, T76A
VL: B2 VL with L11S, P15L, E17Q, Y42L, L43Q, K45R, S49P, Q51R, S73A
notes: complete MAb; FR4 is its own entry; also called H17/L7
B11: M30 (antibody, V domains shown)
VH: EVQLVESGGGLVQPGGSLRLSCAASGYTFITYWIEWVRQAPGKGLVWVSDILPGSGSTNYNENFKGRFTISRDNAKNTLYLQMNSLRAEDTAVYYCARSGYYGNSGFAYWGQGTLVTVSS
VL: B3 VL
notes: complete MAb; FR4 is its own entry; also called H18/L2
B12: M31 (antibody, V domains shown)
VH: B11 VH
VL: B2 VL
notes: complete MAb; FR4 is its own entry; also called H18/L3
B13: M32 (antibody, V domains shown)
VH: B11 VH
VL: B2 VL with T7S
notes: complete MAb; FR4 is its own entry; also called H18/L4
B14: M49 (antibody, V domains shown)
VH: B3 VH with S16A, I70M, A72T, E74T, S84R, E89D
VL: B2 VL with L11S, P15L, E17Q, Y42L, L43Q, K45R, S49P, Q51R, S73A
notes: complete MAb; FR4 is its own entry; also called H20/L7
B15: M70 (antibody, V domains shown)
VH: B3 VH with N61A, E62Q, N63K, K65Q
VL: B2 VL with L11S, P15L, E17Q, Y42L, L43Q, K45R, S49P, Q51R, S73A
notes: complete MAb; FR4 is its own entry; also called H23/L7
B16: M72 (antibody, V domains shown)
VH: EVQLVQSGAEVKKPGATVKISCKVSGYTFITYWIEWVQQAPGKGLEWMGDILPGSGSTNYAEKFQGRVTITADTSTDTAYMELSSLRSEDTAVYYCATSGYYGNSGFAYWGQGTLVTVSS
VL: B3 VL
notes: complete MAb; FR4 is its own entry; also called H24/L2
B17: M73 (antibody, V domains shown)
VH: B16 VH
VL: B2 VL
notes: complete MAb; FR4 is its own entry; also called H24/L3
B18: M74 (antibody, V domains shown)
VH: B16 VH
VL: B2 VL with T7S
notes: complete MAb; FR4 is its own entry; also called H24/L4
B19: M75 (antibody, V domains shown)
VH: B16 VH
VL: B2 VL with P12S, E17Q, S49P
notes: complete MAb; FR4 is its own entry; also called H24/L5
B20: M77 (antibody, V domains shown)
VH: B16 VH
VL: B2 VL with L11S, P15L, E17Q, Y42L, L43Q, K45R, S49P, Q51R, S73A
notes: complete MAb; FR4 is its own entry; also called H24/L7
B21: M14 (antibody, V domains shown)
VH: B2 VH
VL: B2 VL with L11S, P15L, E17Q, Y42L, L43Q, K45R, S49P, Q51R, S73A
notes: complete MAb; FR4 is its own entry; also called H15/L7
B22: M53 (antibody, V domains shown)
VH: B16 VH with A61N, K63N, Q65K
VL: B2 VL with T7S
notes: complete MAb; FR4 is its own entry; also called H21/L4

biological target: endogenous human tissue factor on MDA-MB-231 breast cancer cells (human, UniProt P13726 33-295); test: cell-based or functional assay

Row | Binder | % IL-8 Inhibition
1 | B1 | 93.9%
2 | B2 | 90.7%
3 | B3 | 71.2%
4 | B4 | 79.1%
5 | B5 | 86%
6 | B6 | 82.5%
7 | B7 | 89.8%

Biological target: T1, Cynomolgous monkey (cyno) TF-ECD with …
Test: TF-ECD binding ELISA, chemiluminescent

Row | Binder | EC50
8 | B2 | 0.0196 µg/mL

biological target: T2, recombinant extracellular domain (ECD) of human TF, amino acid 1-219 of the mature chain, C-terminal His6-tag (human, UniProt P13726 33-251); test: TF-ECD binding ELISA, chemiluminescent
T2 construct: expressed in a mammalian system; used for ELISA and Biacore; biotinylated by NHS-ester for the Fab ELISA; also called His6-TF-ECD1-219; HumanTF1-219

Row | Binder | EC50
9 | B2 | 0.0105 µg/mL

Biological target: T1, Cynomolgous monkey (cyno) TF-ECD with …
Test: Biacore

Row | Binder | Kd
10 | B2 | 1.57 nM

biological target: T2, recombinant extracellular domain (ECD) …; test: direct ELISA, 50 ng/ml

Row | Binder | binding result
11 | B8 | binds
12 | B9 | binds
13 | B10 | binds
14 | B11 | binds
15 | B12 | binds
16 | B13 | binds
17 | B14 | binds
18 | B15 | binds
19 | B16 | binds
20 | B17 | binds
21 | B18 | binds
22 | B19 | binds
23 | B20 | binds
24 | B21 | binds

biological target: T2, recombinant extracellular domain (ECD) …; test: Biacore

Row | Binder | Kd | koff | kon
25 | B3 | 0.54 nM | 3.7e-05 s⁻¹ | 69000 M⁻¹ s⁻¹
26 | B4 | 1.13 nM | 9.3e-05 s⁻¹ | 82600 M⁻¹ s⁻¹
27 | B5 | 1.02 nM | 8.2e-05 s⁻¹ | 80400 M⁻¹ s⁻¹
28 | B6 | 0.49 nM | 4.4e-05 s⁻¹ | 90000 M⁻¹ s⁻¹
29 | B7 | 1.6 nM | 0.000103 s⁻¹ | 64300 M⁻¹ s⁻¹

biological target: Innovin, lyophilized recombinant human tissue factor combined with phospholipids (human, UniProt P13726 33-295, limits assumed); test: cell-based or functional assay

Row | Binder | T½ Max (seconds), coagulation of human plasma
30 | B1 | 191 s
31 | B2 | 196 s
32 | B3 | 196 s
33 | B4 | 186 s
34 | B5 | 202 s
35 | B6 | 195 s
36 | B7 | 207 s

Biological target: T1, Cynomolgous monkey (cyno) TF-ECD with …
Test: direct ELISA of supernatants, chemiluminescent
Protocol: A solution Phase direct TF binding ELISA using chemiluminescent detection was used to rank the top binders from human framework adaptation library. The 96 well black maxisorp plates were coated with 100 uL of 4 ug/ml Goat anti human IgG FC diluted in carbonate-bicarbonate buffer, pH 9.4 at 4° C. overnight and then washed thrice with wash buffer (PBS with 0.05% Tween-20 solution) and blocked with […] 1% BSA/10 mM PBS solution for 1 hour followed by a washing as before. Samples or standards were diluted to 50 ng/ml in Assay Buffer (1% BSA in PBS+05% Tween) and 100 ul was added to the assay plate at room temperature for 1 hour with shaking. The plates were washed thrice and 100 ul per well of human or cynomologus TF-ECD with His Tag was added at 100 ng/ml diluted in Assay Buffer and incubate for 2 hours at room temperature. After washing, 100 ul per well of Qiagen peroxidase conjugated penta-his at 1:2000 dilution in assay buffer was added and incubated 1 hour at room temperature with shaking. The BM ChemiLum Substrate (BM Chemilum, POD, Roche) was made freshly at 1:100 dilution into Buffer and 100 ul added to the plates after a final wash. After 10 minutes the plates are read on Perkin Elmer Envision Reader, BM ChemiLum program.
For primary screening of library variants in crude supernatants, samples or controls were normalized to 50 ng/ml in spent FreeStyle 293 HEK media (Gibco) and assayed at single concentration determinations. In the present assay, the concentration of antibody was 5 ng (0.1 ml used) and the TF ECD and the antigen was His6-TF-ECD₁₋₂₁₉ used at a final concentration of 10 ng/well.

Row | Binder | binding result
37 | B11 | no binding (tested: 50 ng/ml)
38 | B12 | no binding (tested: 50 ng/ml)
39 | B13 | no binding (tested: 50 ng/ml)
40 | B22 | no binding (tested: 50 ng/ml)
